The text below walks through data of paper PMC6321783 (Cellular signalling, 2018).

The target of this experiment is T1, HA-ASK1 (Apoptosis Signal-regulating Kinase 1) (UniProt Q99683 1-1374).
T1 sequence (looked up): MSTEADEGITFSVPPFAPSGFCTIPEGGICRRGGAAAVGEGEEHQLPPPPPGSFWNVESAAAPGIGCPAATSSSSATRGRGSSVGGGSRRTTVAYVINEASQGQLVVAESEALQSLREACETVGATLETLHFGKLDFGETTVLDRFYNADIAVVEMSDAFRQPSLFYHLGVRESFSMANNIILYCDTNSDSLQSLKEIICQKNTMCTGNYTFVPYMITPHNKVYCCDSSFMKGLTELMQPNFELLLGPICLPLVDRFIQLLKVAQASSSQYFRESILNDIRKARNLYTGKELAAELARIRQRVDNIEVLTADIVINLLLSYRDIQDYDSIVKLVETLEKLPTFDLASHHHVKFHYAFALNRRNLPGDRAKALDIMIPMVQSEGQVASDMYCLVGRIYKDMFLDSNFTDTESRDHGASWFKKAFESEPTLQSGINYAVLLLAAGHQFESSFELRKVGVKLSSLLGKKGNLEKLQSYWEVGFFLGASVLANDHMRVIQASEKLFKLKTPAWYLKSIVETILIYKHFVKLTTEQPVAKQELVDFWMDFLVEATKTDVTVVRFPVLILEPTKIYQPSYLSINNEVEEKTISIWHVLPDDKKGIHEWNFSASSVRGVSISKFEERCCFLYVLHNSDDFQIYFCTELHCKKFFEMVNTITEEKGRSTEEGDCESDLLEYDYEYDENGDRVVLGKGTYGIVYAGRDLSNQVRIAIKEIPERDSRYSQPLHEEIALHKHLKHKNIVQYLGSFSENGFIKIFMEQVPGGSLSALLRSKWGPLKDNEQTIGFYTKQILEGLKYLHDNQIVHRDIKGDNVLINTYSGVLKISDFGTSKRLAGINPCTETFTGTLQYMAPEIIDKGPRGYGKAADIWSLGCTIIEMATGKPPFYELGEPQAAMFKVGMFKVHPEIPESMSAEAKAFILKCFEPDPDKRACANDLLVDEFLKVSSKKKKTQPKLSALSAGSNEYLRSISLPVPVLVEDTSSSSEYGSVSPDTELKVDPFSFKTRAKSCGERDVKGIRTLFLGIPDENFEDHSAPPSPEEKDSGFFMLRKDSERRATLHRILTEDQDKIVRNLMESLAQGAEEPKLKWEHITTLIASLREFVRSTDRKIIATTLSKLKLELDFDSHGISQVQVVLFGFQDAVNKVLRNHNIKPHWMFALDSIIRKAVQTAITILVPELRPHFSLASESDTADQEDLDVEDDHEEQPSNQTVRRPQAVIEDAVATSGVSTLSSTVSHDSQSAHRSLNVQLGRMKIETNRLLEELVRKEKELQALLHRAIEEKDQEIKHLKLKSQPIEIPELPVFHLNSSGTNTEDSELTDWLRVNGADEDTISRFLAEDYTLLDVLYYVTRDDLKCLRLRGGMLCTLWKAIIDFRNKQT
The experiment in a line: co-IP.

B1: arrestin-3-(1–366) fragment (expressed in COS7 cells) (domain or fragment, bovine, UniProt P32120-2 1-366, looked up)
chain: MGEKPGTRVFKKSSPNCKLTVYLGKRDFVDHLDKVDPVDGVVLVDPDYLKDRKVFVTLTCAFRYGREDLDVLGLSFRKDLFIANYQAFPPTPNPPRPPTRLQERLLRKLGQHAHPFFFTIPQNLPCSVTLQPGPEDTGKACGVDFEIRAFCAKSLEEKSHKRNSVRLVIRKVQFAPEKPGPQPSAETTRHFLMSDRSLHLEASLDKELYYHGEPLNVNVHVTNNSTKTVKKIKVSVRQYADICLFSTAQYKCPVAQVEQDDQVSPSSTFCKVYTITPLLSNNREKRGLALDGKLKHEDTNLASSTIVKEGANKEVLGILVSYRVKVKLVVSRGGDVSVELPFVLMHPKPHDHIALPRPQSAAPETD
In the case of B1, the “binding relative to WT arrestin-3” value was ~0.33 of WT.
